Test results taken from US20240043869A1.

Target: rAAV9 vector (AAV9 capsid: full, intermediate and empty capsids) comprising a mini-dystrophin transgene (adeno-associated virus serotype 9 (AAV9))
Test: affinity chromatography lifecycle study, unbound vg in flow through, resin challenge 7.5x10^13 vg/mL resin

## POROS CaptureSelect AAV9 affinity resin ligand (VHH)
  % unbound vg: < 2%
